“And” between values parts separate entries of the source, which are not always exact repeats. Equal entries are not always repeated. One block for each binder: values may come before it.
What was measured:
[1] = biological target: the molecule itself; experiment: SDS-PAGE and immunoblot; untreated rat pulmonary artery smooth muscle cells; lysates on SDS-PAGE, immunoblot with Prx6 antibody; no Protein-SHifter
[2] = biological target: T1, Human peroxiredoxin 6 (Prx6) (human (endogenous in human pulmonary artery smooth muscle cells)), P30041; experiment: non-reducing SDS-PAGE and immunoblot; untreated (or PDGF-treated) human pulmonary artery smooth muscle cells; TCA-precipitated lysates labelled with Protein-SHifter Plus, SDS-PAGE without BME, immunoblot with Prx6 antibody; conditions: remark: other sources report otherwise
T1 chain: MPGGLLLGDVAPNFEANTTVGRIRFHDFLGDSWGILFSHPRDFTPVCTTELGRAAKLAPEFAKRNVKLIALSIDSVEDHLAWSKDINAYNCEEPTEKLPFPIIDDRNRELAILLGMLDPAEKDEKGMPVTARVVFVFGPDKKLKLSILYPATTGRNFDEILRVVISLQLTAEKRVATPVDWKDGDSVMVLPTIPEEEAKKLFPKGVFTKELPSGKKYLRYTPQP

[3] = biological target: T1, Human peroxiredoxin 6 (Prx6) (human …); experiment: non-reducing SDS-PAGE and immunoblot; human pulmonary artery smooth muscle cells, with or without deferoxamine (50 uM, 30 min) and H2O2 (15 min); lysates on SDS-PAGE with or without 5% BME, immunoblot with Prx6 antibody; no Protein-SHifter; conditions: remark: other sources report otherwise
[4] = biological target: T1, Human peroxiredoxin 6 (Prx6) (human …); experiment: SDS-PAGE and immunoblot; lysate proteins from untreated human pulmonary artery smooth muscle cells denatured with SDS and incubated with H2O2 (or BME) in a test tube for 15 min; Protein-SHifter Plus added, SDS-PAGE, immunoblot with Prx6 antibody; conditions: remark: other sources report otherwise
[5] = biological target: the molecule itself; experiment: non-reducing SDS-PAGE with Coomassie staining; purified recombinant CNBD, untreated or treated with H2O2 (1 mM) for 15 min; SDS-PAGE, Coomassie Blue; no Protein-SHifter

B1: Rat peroxiredoxin 6 (Prx6) (enzyme, UniProt O35244 1-224, looked up)
chain: MPGGLLLGDEAPNFEANTTIGHIRFHDFLGDSWGILFSHPRDFTPVCTTELGRAAKLAPEFAKRNVKLIALSIDSVEDHFAWSKDINAYNGAAPTEKLPFPIIDDKDRDLAILLGMLDPAEKDEKGMPVTARVVFIFGPDKKLKLSILYPATTGRNFDEILRVVDSLQLTASNPVATPVDWKKGESVMVLPTLPEEEAKQLFPKGVFTKELPSGKKYLRYTPQP
notes: Peroxiredoxin 6, rat, one cysteine only (catalytic Cys47); also called rat Prx6; source: endogenous, rat pulmonary artery smooth muscle cells (Cell Applications), in lysate
stoichiometry N [1]: 2

stoichiometry N [2]: 2 and 3 | stoichiometry N [3]: 2 | stoichiometry N [4]: 2
B2: Human peroxiredoxin 6 (Prx6), P30041 1-224 (enzyme)
chain: T1 chain

B3: Cyclic nucleotide-binding domain (CNBD) of human HCN4 (hHCN4) (domain or fragment, UniProt Q9Y3Q4 571-708, looked up)
chain: GELSEPLREEIINFNCRKLVASMPLFANADPNFVTSMLTKLRFEVFQPGDYIIREGTIGKKMYFIQHGVVSVLTKGNKETKLADGSYFGEICLLTRGRRTASVRADTYCRLYSLSVDNFNEVLEEYPMMRRAFETVAL
notes: two cysteines; 19 kDa; Subcloned into pETM11; the printed mass of 19 kDa is more than that of residues 571-708 alone, which may mean that the tag was kept; also called hHCN4 CNBD; CNBD domain of hHCN4 channels; source: E. coli BL21 (DE3), purified (Ni2+-NTA, size-exclusion chromatography)
stoichiometry N [5]: 2 and 3

Reference: publication PMC6563020, “Protein Redox State Monitoring Studies of Thiol Reactivity” (Antioxidants, 2019)
